This test addresses Cdk2/cyclin A complex (Cdk2 phosphorylated at threonine 160 with truncated cyclin A) (human) (UniProt P24941).

With “peptide corresponding to the Cdk binding domain of p27”, the IC50 of inhibition of Cdk2/cyclin A kinase activity (data not shown; 25% residual kinase activity even at peptide concentrations as high as 17 µM) is 125 nM.

For the origin of these results see PMC3470550.
